pKd: −log10 of the molar value.
Key:
Test in all cases: ITC
[1] = molecular target: H3K4me0 peptide (ITC, Figures 5D and 5E) (UniProt P68431)
H3K4me0K14ac peptide = molecular target: H3K4me0K14ac peptide
H3K4me0 (1-25aa) peptide = H3K4me0 (1-25aa) peptide (UniProt P68431)

| pKd [1] | pKd (H3K4me0K14ac peptide) | fold increase of binding activity against ZMYND8-PBP (H3K4me0 (1-25aa) peptide) [fold] | Substance |
| --- | --- | --- | --- |
| 4.82 | – | – | ZMYND8-PB (ITC) (domain or fragment) |
| 5.14 | 6.00 | – | ZMYND8-PBP (93-426aa) (domain or fragment) |
| – | – | 11 | ZMYND8-PBP F109D (domain or fragment) |

— PMC4975651
